Earlier results as cited in publication PMC3463409.

Molecular target: Cys30 (UniProt position 49, FFSFFCPHCYQ)
Conditions: not stated (a thiol pKa implies the reduced form of the active-site cysteine)

**Q.** With “Thiol:disulfide interchange protein DsbA (Escherichia coli)” as the substance, how does the pKa read?
**A.** 3.5
